± gives the uncertainty stated by the source.
Assay: protein stability index of a GFP-peptide fusion (yeast GPS) (PSI 1-4); higher = more stable; sorted into four equal gates, so the index is relative within each strain
Method in brief: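 Mid-log yeast cultures in leucine-free medium, carrying a pooled plasmid library, were sorted into four equal gates by their GFP/Cherry fluorescence ratio. Each plasmid expressed Cherry along with GFP fused upstream of a tiled 17-residue yeast protein peptide. Plasmids recovered from each gate were PCR-amplified and Illumina-sequenced, with reads assigned to strains by barcodes. The protein stability index was obtained by summing each gate's read frequency weighted by its gate number.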

Sequence | protein stability index (san1∆) | protein stability index (ubr1∆) | protein stability index (doa10∆) | protein stability index (pdr5∆)
NITFSEELVSLAVFLFD [YJL039C/NUP192] | 1.62 ± 0.28 | 1.66 ± 0.29 | – | –
TEVIIRATRTQDVLGEN [RPS3] | 3.14 ± 0.13 | 3.35 ± 0.079 | 3.42 ± 0.26 | 2.92 ± 0.12
TELRQLFQENDDDDDDD [DSN1] | 2.24 ± 0.11 | 2.38 ± 0.092 | 2.03 ± 0.063 | 2.36 ± 0.071
LDNLKLKELRIDNSPQA [GRR1] | 2.69 ± 0.07 | 2.94 ± 0.042 | 2.65 ± 0.054 | 2.72 ± 0.07
PKTGKVERSEAISKKDL [SEC65] | 3.33 ± 0.14 | 3.23 ± 0.073 | 3.63 ± 0.16 | 3.46 ± 0.081
ENDAKKSKGDVDIKGED [NUT1] | 2.95 ± 0.16 | 3.2 ± 0.12 | 3.18 ± 0.12 | 3.27 ± 0.2
NQTRKAHRNGIKKPKTY [RPL29] | 2.92 ± 0.058 | 2.99 ± 0.063 | 2.65 ± 0.083 | 2.98 ± 0.072
PKFISEALAFTSLVANE [YDL116W/NUP84] | 1.31 ± 0.15 | 1.11 ± 0.17 | 1.23 ± 0.067 | 1.38 ± 0.078
TEYFENKQSVSNLSPDL [DSN1] | 3.34 ± 0.089 | 3.58 ± 0.058 | 3.48 ± 0.13 | 3.4 ± 0.1
TVKENESDSKLQCHISG [UBP6] | 3.05 ± 0.087 | 3.15 ± 0.1 | 3.28 ± 0.098 | 3.3 ± 0.11
KFDSRIRGILMASGSTT [PRP8] | 2.06 ± 0.12 | 2.19 ± 0.13 | 2.44 ± 0.084 | 2.18 ± 0.11
AQLTHSLRRIRDEMSKA [MED8] | 2.02 ± 0.11 | 1.99 ± 0.052 | 2.33 ± 0.12 | 2.35 ± 0.07
SKTGSVDTLHNKEGTLE [SSN2] | 3.19 ± 0.083 | 3.4 ± 0.14 | 3.46 ± 0.24 | 3.14 ± 0.16
MASLPHPKIVKKHTKKF [RPL32] | 2.22 ± 0.088 | 2.83 ± 0.075 | 2.41 ± 0.088 | 2.97 ± 0.093
LEKLVDHHPEGLSAREA [PRE10] | 2.65 ± 0.067 | 2.62 ± 0.058 | 2.92 ± 0.068 | 2.9 ± 0.059
DVYASKVRLNASEREEL [PRP8] | 2.39 ± 0.072 | 1.78 ± 0.046 | 1.93 ± 0.062 | 2.22 ± 0.061
EAMMLKEEGLQQFNLHE [MED1] | 3.17 ± 0.12 | 2.61 ± 0.12 | 2.97 ± 0.16 | 3.26 ± 0.15
DSVATVIEVIETKWDDA [YJR042W/NUP85] | 2.16 ± 0.17 | 2.1 ± 0.27 | 2.32 ± 0.24 | 2.64 ± 0.28
ILSDSPLELSAPIGKHY [DIS3] | – | 2.39 ± 0.17 | 1.71 ± 0.13 | –
HPQDFGNPGRIRVLFKE [SEC65] | 3.13 ± 0.065 | 3.11 ± 0.061 | 2.91 ± 0.077 | 2.94 ± 0.11
AEEQTKLQSQSLHTKNV [YLR018C/POM34] | 3.1 ± 0.071 | 3.13 ± 0.049 | 3.29 ± 0.058 | 3.44 ± 0.063
TTNLDIDLLTFQYGSRL [RPP1] | 3.06 ± 0.092 | 2.98 ± 0.055 | 3.29 ± 0.087 | 3.22 ± 0.073
ETLGDILKRDFELVSDL [ECM29] | 2.95 ± 0.22 | 3.08 ± 0.17 | 3.27 ± 0.14 | 3.39 ± 0.17
GKALVHHYEECAERVKI [QCR6] | 3.25 ± 0.073 | 3.39 ± 0.074 | 3.47 ± 0.093 | 3.28 ± 0.1
FKKQMQTIMKMGPLSNI [SRP54] | 3.03 ± 0.1 | 2.92 ± 0.072 | 2.59 ± 0.11 | 3.14 ± 0.074
GYGSNKKTKFLSPSGHK [RPL32] | 2.62 ± 0.14 | 1.63 ± 0.092 | 2.4 ± 0.081 | 2.64 ± 0.09

Sequence | protein stability index (san1∆) | protein stability index (ubr1∆) | protein stability index (doa10∆) | protein stability index (pdr5∆)
KDSSLNYSSESYRNAFT [YJL039C/NUP192] | 2.02 ± 0.069 | 2.85 ± 0.047 | 2.89 ± 0.06 | 2.32 ± 0.064
LSSELDSNKTLLHNHLK [SMC2] | 3.17 ± 0.048 | 3.2 ± 0.039 | 3.21 ± 0.059 | 3.26 ± 0.058
PFSYLIDETMMDKPLNF [SRB5] | 2.83 ± 0.067 | 2.97 ± 0.054 | 2.88 ± 0.11 | 3.09 ± 0.073
MTEDIEQKKTATEVTPQ [RPC19] | 3.1 ± 0.098 | 3.28 ± 0.11 | 2.8 ± 0.12 | 3.2 ± 0.093
QLGPQTPAFNTAILQRQ [ECM29] | 1.41 ± 0.17 | 1.67 ± 0.21 | 1.39 ± 0.21 | 1.49 ± 0.17
KKCHRLLWTPKKLEITS [RPR2] | 2.59 ± 0.038 | 2.34 ± 0.031 | 2.35 ± 0.045 | 2.48 ± 0.044
FQIDNDNIRYATALQTC [SMC2] | 1.45 ± 0.073 | 1.74 ± 0.052 | 1.8 ± 0.052 | 1.78 ± 0.047
NKQYELFMKSLIENCKK [SWI1] | 2.77 ± 0.046 | 2.66 ± 0.036 | 2.58 ± 0.053 | 2.85 ± 0.061
HKQELQDLILDLKKKLN [SMC4] | 2.31 ± 0.062 | 1.75 ± 0.058 | 2.55 ± 0.078 | 2.75 ± 0.16
QELCYPDENHDNTSHDE [BRN1] | 2.98 ± 0.061 | 3.35 ± 0.056 | 3.23 ± 0.073 | 3.27 ± 0.061
KMVIAELLPHYPFVTND [YJR042W/NUP85] | 2.87 ± 0.052 | 2.99 ± 0.073 | 2.83 ± 0.09 | 2.75 ± 0.092
PMTVKLVQLPKSAMDTF [POP3] | 2.81 ± 0.053 | 2.88 ± 0.053 | 2.15 ± 0.058 | 2.52 ± 0.062
SQYSTMVNIGLHNLNEY [RGR1] | 1.16 ± 0.09 | 1.25 ± 0.13 | 1.16 ± 0.14 | 2.09 ± 0.1
LPDPKPLPLDLNVQVWH [ITC1] | 3.01 ± 0.063 | 2.55 ± 0.038 | 2.8 ± 0.064 | 2.72 ± 0.051
VIRMVVLTAAGVERLIF [PRE3] | 2.42 ± 0.13 | 3.17 ± 0.14 | 2.33 ± 0.17 | 2.99 ± 0.13
DNNSSLNVSNTKENGDF [PRP8] | 2.9 ± 0.058 | 3.39 ± 0.074 | 3.17 ± 0.083 | 2.84 ± 0.084
ANVEILAVEDKPSPIDS [CSL4] | 2.57 ± 0.15 | 3.12 ± 0.063 | 2.98 ± 0.095 | 2.97 ± 0.13
SNQRFKDLQWLEFARIT [SIN4] | 2.74 ± 0.068 | 3.15 ± 0.073 | 3.17 ± 0.064 | 3.13 ± 0.057
EILYYQIKTLPEQYSDI [AAR2] | 2.77 ± 0.067 | 2.91 ± 0.046 | 2.9 ± 0.081 | 3.14 ± 0.084
KEKIKNNRQLPYLVANV [RPT5] | 3.11 ± 0.096 | 2.64 ± 0.081 | 2.78 ± 0.1 | 3.1 ± 0.095
KSLDSIPMSKTIKDLVG [FAS2] | 2.79 ± 0.13 | 3.16 ± 0.075 | 3.26 ± 0.12 | 2.97 ± 0.092
GDTVQFAEYIQANIQLY [PRE1] | 2.2 ± 0.064 | 2.04 ± 0.053 | 2.11 ± 0.065 | 2.31 ± 0.063
RIHVNPSYYGVRDTSPH [BRR2] | 1.74 ± 0.085 | 1.9 ± 0.058 | 1.96 ± 0.1 | 1.93 ± 0.072
SFTDILKSAIRDEIAKN [RPN12] | 3.08 ± 0.09 | 2.89 ± 0.065 | 2.76 ± 0.1 | 2.98 ± 0.12
QVGLNFELSFTGAPPYY [YMR129W/POM152] | 1.58 ± 0.061 | 1.93 ± 0.031 | 2.35 ± 0.053 | 2.08 ± 0.061
TQVFNILLQHKEKLTVQ [POP1] | 3.13 ± 0.058 | 2.94 ± 0.036 | 3.1 ± 0.084 | 3.11 ± 0.066

— the supplement of paper PMC9732359
